{"source": "paper PMC12374985", "molecular_target": "endogenous PKM2 (human (endogenous in A549, PC9 and HEK293T)) (UniProt P14618)", "experiment": "cross-linking", "data": [{"substance": "endogenous PKM2, P14618 1-531 (natural protein; other documents disagree on this pair)", "values": [{"measurement": "stoichiometry N", "value": 2}]}]}
